Reference: patent publication US20240036044A1

Biological target: recombinant SARS-CoV-2 Spike protein antigen (Z03501, Genscript) (SARS-CoV-2) (UniProt P0DTC2)

Monoclonal antibody against the SARS-CoV-2 Spike protein (A02038, Genscript)
Kd: 2.39 nM | koff: 0.000603 s⁻¹ | kon: 252000 M⁻¹ s⁻¹
